Assay results from patent US20250155457A1 (DIAGNOSTICA STAGO, published 2025).

Legend:
Experiment in all cases: cell-based or functional assay
[1] = target: T1, exogenous platelet factor 4 (PF4), heparin-modified (PF4/heparin complex) (UniProt P02776 32-101)
T1 sequence (looked up): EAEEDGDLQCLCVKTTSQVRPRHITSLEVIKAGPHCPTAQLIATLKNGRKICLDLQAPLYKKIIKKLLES

[2] = target: T1, exogenous platelet factor 4 (PF4), …; remark: listed apart in the source
[3] = target: T1, exogenous platelet factor 4 (PF4), …; remark: listed apart in the source
[4] = target: T1, exogenous platelet factor 4 (PF4), …; remark: listed apart in the source
[5] = target: T1, exogenous platelet factor 4 (PF4), …; remark: listed apart in the source
[6] = target: T1, exogenous platelet factor 4 (PF4), …; remark: listed apart in the source
[7] = target: T1, exogenous platelet factor 4 (PF4), …; remark: listed apart in the source
[8] = target: T1, exogenous platelet factor 4 (PF4), …; remark: listed apart in the source
[9] = target: T1, exogenous platelet factor 4 (PF4), …; remark: listed apart in the source
[10] = target: T1, exogenous platelet factor 4 (PF4), …; remark: listed apart in the source
[11] = target: T1, exogenous platelet factor 4 (PF4), …; remark: listed apart in the source
[12] = target: T1, exogenous platelet factor 4 (PF4), …; remark: listed apart in the source

VS series activation ratio, Annexin V labeling, patient 6 whole blood [1]: 26.5 ratio | VS series inhibition ratio, Annexin V labeling, patient 6 whole blood (heparin 100 IU/ml) [1]: 0.75 ratio | VS series activation ratio, Annexin V labeling, patient 5 whole blood [2]: 8.6 ratio | VS series inhibition ratio, Annexin V labeling, patient 5 whole blood (heparin 100 IU/ml) [2]: 0.61 ratio | VS series activation ratio, CD62P labeling, patient 2 whole blood [3]: 13.2 ratio | VS series inhibition ratio, CD62P labeling, patient 2 whole blood (heparin 100 IU/ml) [3]: 0.9 ratio | VS series activation ratio, CD62P labeling, patient 4 whole blood [4]: 281 ratio | VS series inhibition ratio, CD62P labeling, patient 4 whole blood (heparin 100 IU/ml) [4]: 0.94 ratio | VS series activation ratio, CD62P labeling, patient 5 whole blood [5]: 52.7 ratio | VS series inhibition ratio, CD62P labeling, patient 5 whole blood (heparin 100 IU/ml) [5]: 0.84 ratio | VS series activation ratio, CD62P labeling, patient 3 whole blood [6]: 94.2 ratio | VS series inhibition ratio, CD62P labeling, patient 3 whole blood (heparin 100 IU/ml) [6]: 0.57 ratio | VS series activation ratio, CD62P labeling, patient 1 whole blood (max % x MFI with 5B9 + PF4 + low heparin over basal) [7]: 300 ratio | VS series inhibition ratio, CD62P labeling, patient 1 whole blood (heparin 100 IU/ml) [7]: 0.88 ratio | VS series activation ratio, Annexin V labeling, patient 1 whole blood [8]: 95.9 ratio | VS series inhibition ratio, Annexin V labeling, patient 1 whole blood (heparin 100 IU/ml) [8]: 0.85 ratio | VS series activation ratio, Annexin V labeling, patient 2 whole blood [9]: 11.3 ratio | VS series inhibition ratio, Annexin V labeling, patient 2 whole blood (heparin 100 IU/ml) [9]: 0.65 ratio | VS series activation ratio, Annexin V labeling, patient 4 whole blood [10]: 412 ratio | VS series inhibition ratio, Annexin V labeling, patient 4 whole blood (heparin 100 IU/ml) [10]: 0.95 ratio | VS series activation ratio, Annexin V labeling, patient 3 whole blood [11]: 21.7 ratio | VS series inhibition ratio, Annexin V labeling, patient 3 whole blood (heparin 100 IU/ml) [11]: 0.74 ratio | VS series activation ratio, CD62P labeling, patient 6 whole blood [12]: 117 ratio | VS series inhibition ratio, CD62P labeling, patient 6 whole blood (heparin 100 IU/ml) [12]: 0.94 ratio
B1: chimeric monoclonal antibody 5B9 (antibody, V domains shown)
VH: DVQLQESGPDLVKPSQSLSLTCTVTGYSITSGYSWHWIRQFPGNKLEWMGYIHYSGSTNYNPSLKSRISITRDTSKNQFFLQLNSVTTEDTATYYCARELRLRYFDVWGAGTTVTVSS
VL: EIVLTQSPTTMAASPGEKITITCSASSSISSNYLHWYQQKPGFSPKLLIYRTSNLASGVPARFSGSGSGTSYSLTIGTMEAEDVATYYCQQGSSIPLTFGAGTKLELKR
